This note sets out measurements from patent US20240270846A1 (published 2024).

To fix the notation:
B1: CE115HA000 V95D one-arm antibody (antibody, human IgG1, kappa, L234A L235A, N297A, name in Kabat numbering)
heavy: QVQLVESGGGVVQPGRSLRLSCAASGFTFSNAWMHWVRQAPGKGLEWVAQIKAKSNNYATYYAESVKGRFTISRDDSKNSLYLQMNSLKTEDTAVYYCRYDHYGAYYGVDAWGQGTTVTVSSASTKGPSVFPLAPSSKSTSGGTAALGCLVKDYFPEPVTVSWNSGALTSGVHTFPAVLQSSGLYSLSSVVTVPSSSLGTQTYICNVNHKPSNTKVDKKVEPKSCDKTHTCPPCPAPEAAGGPSVFLFPPKPKDTLMISRTPEVTCVVVDVSHEDPEVKFNWYVDGVEVHNAKTKPREEQYASTYRVVSVLTVLHQDWLNGKEYKCKVSNKALPAPIEKTISKAKGQPREPQVYTLPPSRCELTKNQVSLSCAVKGFYPSDIAVEWESNGQPENNYKTTPPVLDSDGSFFLVSKLTVDKSRWQQGNVFSCSVMHEALHNHYTQKSLSLSPDYKDDDDK
chain: EPKSSDKTHTCPPCPAPELLGGPSVFLFPPKPKDTLMISRTPEVTCVVVDVSHEDPEVKFNWYVDGVEVHNAKTKPREEQYNSTYRVVSVLTVLHQDWLNGKEYKCKVSNKALPAPIEKTISKAKGQPREPQVCTLPPSRDELTKNQVSLWCLVKGFYPSDIAVEWESNGQPENNYKTTPPVLDSDGSFFLYSKLTVDKSRWQQGNVFSCSVMHEALHNRYTQKSLSLSP
light: DIVMTQSPLSLPVTPGEPASISCRSSQSLVHSNRNTYLHWYQQKPGQAPRLLIYKVSNRFSGVPDRFSGSGSGTDFTLKISRVEAEDVGVYYCGQGTQVPYTFGQGTKLEIKRTVAAPSVFIFPPSDEQLKSGTASVVCLLNNFYPREAKVQWKVDNALQSGNSQESVTEQDSKDSTYSLSSTLTLSKADYEKHKVYACEVTHQGLSSPVTKSFNRGEC
notes: one-arm antibody (one Fab)
B2: CE115HA000 V100cE one-arm antibody (antibody, human IgG1, kappa, L234A L235A, N297A, name in Kabat numbering)
heavy: B1 heavy with D101V, V109E
chain: B1 chain
light: B1 light
notes: one-arm antibody (one Fab)
B3: CE115HA000 Y100G one-arm antibody (antibody, human IgG1, kappa, L234A L235A, N297A, name in Kabat numbering)
heavy: B1 heavy with D101V, Y106G
chain: B1 chain
light: B1 light
notes: one-arm antibody (one Fab)
B4: CE115HA000 V95S one-arm antibody (antibody, human IgG1, kappa, L234A L235A, N297A, name in Kabat numbering)
heavy: B1 heavy with D101S
chain: B1 chain
light: B1 light
notes: one-arm antibody (one Fab)
B5: CE115HA000 Y97G one-arm antibody (antibody, human IgG1, kappa, L234A L235A, N297A, name in Kabat numbering)
heavy: B1 heavy with D101V, Y103G
chain: B1 chain
light: B1 light
notes: one-arm antibody (one Fab)
B6: CE115HA000 Y100L one-arm antibody (antibody, human IgG1, kappa, L234A L235A, N297A, name in Kabat numbering)
heavy: B1 heavy with D101V, Y106L
chain: B1 chain
light: B1 light
notes: one-arm antibody (one Fab)
B7: CE115HA000 V95K one-arm antibody (antibody, human IgG1, kappa, L234A L235A, N297A, name in Kabat numbering)
heavy: B1 heavy with D101K
chain: B1 chain
light: B1 light
notes: one-arm antibody (one Fab)
B8: CE115HA000 Y58N one-arm antibody (antibody, human IgG1, kappa, L234A L235A, N297A, name in Kabat numbering)
heavy: B1 heavy with Y61N, D101V
chain: B1 chain
light: B1 light
notes: one-arm antibody (one Fab)
B9: CE115HA000 V100cD one-arm antibody (antibody, human IgG1, kappa, L234A L235A, N297A, name in Kabat numbering)
heavy: B1 heavy with D101V, V109D
chain: B1 chain
light: B1 light
notes: one-arm antibody (one Fab)
B10: CE115HA000 V100cP one-arm antibody (antibody, human IgG1, kappa, L234A L235A, N297A, name in Kabat numbering)
heavy: B1 heavy with D101V, V109P
chain: B1 chain
light: B1 light
notes: one-arm antibody (one Fab)
B11: CE115HA000 Y97D one-arm antibody (antibody, human IgG1, kappa, L234A L235A, N297A, name in Kabat numbering)
heavy: B1 heavy with D101V, Y103D
chain: B1 chain
light: B1 light
notes: one-arm antibody (one Fab)
B12: CE115HA000 Y100S one-arm antibody (antibody, human IgG1, kappa, L234A L235A, N297A, name in Kabat numbering)
heavy: B1 heavy with D101V, Y106S
chain: B1 chain
light: B1 light
notes: one-arm antibody (one Fab)
B13: CE115HA000 Y97A one-arm antibody (antibody, human IgG1, kappa, L234A L235A, N297A, name in Kabat numbering)
heavy: B1 heavy with D101V, Y103A
chain: B1 chain
light: B1 light
notes: one-arm antibody (one Fab)
B14: CE115HA000 Y97R one-arm antibody (antibody, human IgG1, kappa, L234A L235A, N297A, name in Kabat numbering)
heavy: B1 heavy with D101V, Y103R
chain: B1 chain
light: B1 light
notes: one-arm antibody (one Fab)
B15: CE115HA000 Y100D one-arm antibody (antibody, human IgG1, kappa, L234A L235A, N297A, name in Kabat numbering)
heavy: B1 heavy with D101V, Y106D
chain: B1 chain
light: B1 light
notes: one-arm antibody (one Fab)
B16: CE115HA000 Y58L one-arm antibody (antibody, human IgG1, kappa, L234A L235A, N297A, name in Kabat numbering)
heavy: B1 heavy with Y61L, D101V
chain: B1 chain
light: B1 light
notes: one-arm antibody (one Fab)
B17: CE115HA000 Y100W one-arm antibody (antibody, human IgG1, kappa, L234A L235A, N297A, name in Kabat numbering)
heavy: B1 heavy with D101V, Y106W
chain: B1 chain
light: B1 light
notes: one-arm antibody (one Fab)
B18: CE115HA000 Y100V one-arm antibody (antibody, human IgG1, kappa, L234A L235A, N297A, name in Kabat numbering)
heavy: B1 heavy with D101V, Y106V
chain: B1 chain
light: B1 light
notes: one-arm antibody (one Fab)
B19: CE115HA000 Y58S one-arm antibody (antibody, human IgG1, kappa, L234A L235A, N297A, name in Kabat numbering)
heavy: B1 heavy with Y61S, D101V
chain: B1 chain
light: B1 light
notes: one-arm antibody (one Fab)
B20: CE115HA000 Y100aD one-arm antibody (antibody, human IgG1, kappa, L234A L235A, N297A, name in Kabat numbering)
heavy: B1 heavy with D101V, Y107D
chain: B1 chain
light: B1 light
notes: one-arm antibody (one Fab)
B21: CE115HA000 Y55S one-arm antibody (antibody, human IgG1, kappa, L234A L235A, N297A, name in Kabat numbering)
heavy: B1 heavy with Y58S, D101V
chain: B1 chain
light: B1 light
notes: one-arm antibody (one Fab)
B22: CE115HA000 Y100Q one-arm antibody (antibody, human IgG1, kappa, L234A L235A, N297A, name in Kabat numbering)
heavy: B1 heavy with D101V, Y106Q
chain: B1 chain
light: B1 light
notes: one-arm antibody (one Fab)
B23: CE115HA000 Y97P one-arm antibody (antibody, human IgG1, kappa, L234A L235A, N297A, name in Kabat numbering)
heavy: B1 heavy with D101V, Y103P
chain: B1 chain
light: B1 light
notes: one-arm antibody (one Fab)
B24: CE115HA000 Y59S one-arm antibody (antibody, human IgG1, kappa, L234A L235A, N297A, name in Kabat numbering)
heavy: B1 heavy with Y62S, D101V
chain: B1 chain
light: B1 light
notes: one-arm antibody (one Fab)
B25: CE115HA000 Y97S one-arm antibody (antibody, human IgG1, kappa, L234A L235A, N297A, name in Kabat numbering)
heavy: B1 heavy with D101V, Y103S
chain: B1 chain
light: B1 light
notes: one-arm antibody (one Fab)
B26: CE115HA000 Y100A one-arm antibody (antibody, human IgG1, kappa, L234A L235A, N297A, name in Kabat numbering)
heavy: B1 heavy with D101V, Y106A
chain: B1 chain
light: B1 light
notes: one-arm antibody (one Fab)
B27: CE115HA000 Y100K one-arm antibody (antibody, human IgG1, kappa, L234A L235A, N297A, name in Kabat numbering)
heavy: B1 heavy with D101V, Y106K
chain: B1 chain
light: B1 light
notes: one-arm antibody (one Fab)
B28: CE115HA000 V95E one-arm antibody (antibody, human IgG1, kappa, L234A L235A, N297A, name in Kabat numbering)
heavy: B1 heavy with D101E
chain: B1 chain
light: B1 light
notes: one-arm antibody (one Fab)
B29: CE115HA000 Y100P one-arm antibody (antibody, human IgG1, kappa, L234A L235A, N297A, name in Kabat numbering)
heavy: B1 heavy with D101V, Y106P
chain: B1 chain
light: B1 light
notes: one-arm antibody (one Fab)
B30: CE115HA000 Y100aA one-arm antibody (antibody, human IgG1, kappa, L234A L235A, N297A, name in Kabat numbering)
heavy: B1 heavy with D101V, Y107A
chain: B1 chain
light: B1 light
notes: one-arm antibody (one Fab)
B31: CE115HA000 Y58Q one-arm antibody (antibody, human IgG1, kappa, L234A L235A, N297A, name in Kabat numbering)
heavy: B1 heavy with Y61Q, D101V
chain: B1 chain
light: B1 light
notes: one-arm antibody (one Fab)
B32: CE115HA000 V95G one-arm antibody (antibody, human IgG1, kappa, L234A L235A, N297A, name in Kabat numbering)
heavy: B1 heavy with D101G
chain: B1 chain
light: B1 light
notes: one-arm antibody (one Fab)

Positions count from the first letter of the chain named. Numbers in names are those of the source.

T1 sequence (P07766 23-126): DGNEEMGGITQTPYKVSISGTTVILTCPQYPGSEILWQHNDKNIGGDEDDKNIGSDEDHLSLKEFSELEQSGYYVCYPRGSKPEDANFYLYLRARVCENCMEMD

This assay addresses T1, CD3 epsilon homodimer protein (UniProt P07766 23-126).
T1 construct: Immobilized on Sensor chip CM4 by amine coupling; construct not described; also called CD3 (CD3 epsilon)
The experiment in a line: SPR Biacore T200, CD3 epsilon homodimer on CM4 chip, antibody as analyte.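 Also: Amine-coupled CD3 epsilon homodimer, run at 25 °C in HBS-EP+ buffer, ratio is bound amount of each single-residue H chain variant over that of the parent antibody.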
For B1, the “ratio of amounts bound (Y/X vs CE115HA000)” value (shortened to “ratio of amounts bound”) was determined as 0.24.
As for B2, the “ratio of amounts bound” value was 0.46.
In the case of B3, the “ratio of amounts bound” value came out at 1.07.
Regarding B4, the “ratio of amounts bound” value is 0.22.
In the case of B5 it was 0.18.
Next, B6: 0.7.
Next, B7: 0.64; B8: 0.33.
As to B9, the “ratio of amounts bound” value is 0.44.
In the case of B10 it was 0.2; in that of B11, 0.24; in that of B12, 0.81.
In the case of B13 it was 0.16.
For the molecule B14, the “ratio of amounts bound” value worked out at 0.27.
On to B15, for which the “ratio of amounts bound” value was 0.52.
As for B16, the “ratio of amounts bound” value amounted to 0.27.
In the case of B17 it was 1.03.
In the case of B18 it was 0.6; in that of B19, 0.18.
B20: the “ratio of amounts bound” value was found to be 0.31.
Regarding B21, the “ratio of amounts bound” value came out at 0.26.
In the case of B22 it was 0.8.
Next, B23: 0.11; B24: 0.94; B25: 0.18.
As for B26, the “ratio of amounts bound” value turned out to be 0.9.
Next, B27: 1.07.
Next, B28: 0.24.
Next, B29: 0.48; B30: 0.62; B31: 0.19.
Turning to B32, the “ratio of amounts bound” value worked out at 0.19.
